{"source": "patent US20190015518A1", "about": "“DRUG DELIVERY COMPOSITIONS AND METHODS” (priority 2016, published 2019)", "key": {"[1]": {"assay": "Viscosity reduction by excipients (rheometer)", "assay_type": "physicochemical", "protocol": "The viscosity of 29 kDa HA (60 mg/mL), 33HA-Lys (33 kDa HA with linker, 8 mg/mL on HA basis), and 33HA-Lys-Pt (41.7 mg/mL on HA basis) with increasing concentration of mannitol (0, 0.1, 0.5 and 1 M) were measured using a rheometer at 37° C.\n(§1) The solutions were incubated in the dark for 20 hours using a CLAY ADAMS® Brand Nutator. After 20 hours, the pH of the solutions were adjusted to pH 6.0 using 1N NaOH. A Brookfield DVIII Ultra Programmable Rheometer was used to measure the viscosity of three 500-μL samples of each solution. Measurements were taken for each at three different RPMs, where the torque ranged from 10-100%. Values for viscosity were not recorded until at least 30 seconds after the motor was started, after the torque readings were stabilized.\nas §1, with “to pH 5.0 or 6.0 using” for “to pH 6.0 using”"}, "[2]": {"assay": "Pharmacokinetics in three tumor-bearing dogs (three-compartmental model)", "assay_type": "in vivo, dog", "details": "10 mg/m2", "protocol": "An open label, multiple dose/dosage phase I/II trial of 75HA-Lys-Pt was conducted at the University of Missouri Veterinary Medical Teaching Hospital (MU-VMTH). The clinical trial protocol was approved by the University of Missouri ACUC. Dogs of any age, sex, or breed presented to the MU-VMTH oncology service with the a histological diagnosis of anal sac carcinoma, oral squamous cell carcinoma, oral melanoma, nasal carcinoma, or digital squamous cell carcinoma with a performance score of 0 or 1 (0: normal activity; 1: restricted activity; 2: compromised activity; 3: disabled; 4: dead) and without comorbid conditions that would limit life expectancy to less than nine weeks were offered enrollment in the trial.\nFollowing complete staging, client consent was obtained to enroll each dog in the study. Once enrolled in the study, longest tumor diameters of all target lesions were recorded. An indwelling jugular catheter was placed to facilitate collection of blood samples. Dogs received 10 to 30 mg/m^2 intra-tumoral injections through 1 to 3 pre-placed 22-ga spinal needles once every three weeks for up to four planned doses. Dogs were sedated or anesthetized for each treatment, and a 2-mL blood sample was collected from the jugular catheter at 0.5, 1, 2, 4, and 24 hours following drug administration. Blood samples were spun, plasma was collected and frozen within two hours. A CBC and renal profile with urinalysis were conducted prior to and one week after each treatment. Some dogs experiencing apparent adverse effects of drug administration had complete biomedical profiles performed. Tumor measurements were collected three weeks following each administration to assess response.\nSerum samples of 3 dogs were diluted 20-fold in 1% HNO3, and vortexed prior to inductively coupled plasma mass spectrometry (ICP-MS) analysis. The platinum concentration of serum was determined using an Agilent 7500i ICP-MS. A calibration curve was generated from 1 to 50 ppb platinum (acceptable criterion R^2>0.995) and 50-ppb bismuth was used as an internal standard. […] The pharmacokinetics were modeled using a SAAM II three-compartmental model.\nThe serum pharmacokinetics data was modeled using a three-compartmental model with an injection site compartment (q3), a serum compartment (q1), and a tissue compartment (q2). […] Three transfer constants, k(1,3), k(1,2) and k(2,1), and one loss constant, k(0,1), were assigned to the model. The k(1,3) defined the drug absorption process allowing the transfer of HA-Pt from the injection site compartment to the serum compartment. A reversible k(3,1) was not necessary as a sink condition was assumed. Due to the concentration gradient between the injection site and the central serum compartments, drug redistribution back to the injection site was not expected. […] Drug transfer and equilibrium between plasma and tissue compartments were represented by k(1,2) and k(2,1). Post-injection drug diffused from the tissue at the injection site to the blood capillaries and the lymphatic vessels. Eventually the drug molecules entered the systemic circulation and distributed into organs. It is likely that the highly perfused organs, such as liver and kidneys, established equilibrium sooner than organs with low blood flow."}}, "note": "Several values for one entry are separate records, joined by “and”; a condition that tells them apart may be missing. Equal entries are not always repeated.", "data": [{"substance": "HA-cis-[Pt(NH3)2(N^α-Acetyl-L-Lysine)] [75HA-Lys-Pt]", "values": [{"measurement": "percent reduction of viscosity", "setting": "[1]; 12 mM CaAc2, pH 5.0", "result": "25.1-78.0%"}, {"measurement": "percent reduction of viscosity", "setting": "[1]; 12 mM CaAc2, pH 6.0", "result": "21.4-81.0%"}, {"measurement": "percent reduction of viscosity", "setting": "[1]; 12 mM NaCl, pH 5.0", "result": "36.6-83.2%"}, {"measurement": "percent reduction of viscosity", "setting": "[1]; 12 mM calcium lactate, pH 5.0", "result": "23.0-71.8%"}, {"measurement": "percent reduction of viscosity", "setting": "[1]; 12 mM calcium lactate, pH 6.0", "result": "24.3-80.9%"}, {"measurement": "percent reduction of viscosity", "setting": "[1]; 12 mM sodium acetate and trehalose 15% wt, pH 5.0, two batches", "result": "54.1% and 84.3%"}, {"measurement": "percent reduction of viscosity", "setting": "[1]; 12 mM sodium acetate, pH 5.0", "result": "14.5-89.2%"}, {"measurement": "percent reduction of viscosity", "setting": "[1]; 12 mM sodium carbonate and trehalose 15% wt, pH 5.0", "result": "48.5-99.0%"}, {"measurement": "percent reduction of viscosity", "setting": "[1]; 12 mM sodium carbonate, pH 5.0", "result": "60.6-99.2%"}, {"measurement": "percent reduction of viscosity", "setting": "[1]; 12 mM sodium citrate and trehalose 15% wt, pH 5.0", "result": "15.6-95.4%"}, {"measurement": "percent reduction of viscosity", "setting": "[1]; 12 mM sodium citrate, pH 5.0", "result": "38.4-97.2%"}, {"measurement": "percent reduction of viscosity", "setting": "[1]; CaCl2-containing PBS buffer, pH 6.0, three batches", "result": "55.2-88.6%"}, {"measurement": "percent reduction of viscosity", "setting": "[1]; Sodium Chelex 100, pH 5.0, two batches", "result": "82.0% and 91.7%"}, {"measurement": "percent reduction of viscosity", "setting": "[1]; buffer-free CaCl2, pH 5.0, three batches", "result": "32.1-76.6%"}, {"measurement": "percent reduction of viscosity", "setting": "[1]; buffer-free CaCl2, pH 6.0, three batches", "result": "26.6-77.0%"}, {"measurement": "AUC", "setting": "[2]; Dog 1 (28.7 kg)", "result": 4000, "unit": "ng·h/mL"}, {"measurement": "Cmax", "setting": "[2]; Dog 1 (28.7 kg)", "result": 174, "unit": "ng/mL"}, {"measurement": "Tmax", "setting": "[2]; Dog 1 (28.7 kg)", "result": 60, "unit": "min"}, {"measurement": "Vss", "setting": "[2]; Dog 1 (28.7 kg)", "result": 2, "unit": "L/kg"}, {"measurement": "AUC", "setting": "[2]; Dog 2 (25.2 kg)", "result": 900, "unit": "ng·h/mL"}, {"measurement": "Cmax", "setting": "[2]; Dog 2 (25.2 kg)", "result": 155, "unit": "ng/mL"}, {"measurement": "Tmax", "setting": "[2]; Dog 2 (25.2 kg)", "result": 30, "unit": "min"}, {"measurement": "Vss", "setting": "[2]; Dog 2 (25.2 kg)", "result": 33.4, "unit": "L/kg"}, {"measurement": "AUC", "setting": "[2]; Dog 3 (6.5 kg)", "result": 2200, "unit": "ng·h/mL"}, {"measurement": "Cle", "setting": "[2]; Dog 3 (6.5 kg)", "result": 1.53, "unit": "mL/min/kg"}, {"measurement": "Cmax", "setting": "[2]; Dog 3 (6.5 kg)", "result": 128, "unit": "ng/mL"}, {"measurement": "Tmax", "setting": "[2]; Dog 3 (6.5 kg)", "result": 30, "unit": "min"}, {"measurement": "Vss", "setting": "[2]; Dog 3 (6.5 kg)", "result": 8.9, "unit": "L/kg"}]}]}
